Assay results: the domain aggregation screens of Martell et al. (2025)

Assay: soluble fraction after stress (log2 fold change); higher = more stays soluble; pooled small domains, quantitative proteomics
Settings: stress: 75 degC
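Also: 20 min heating vs room temperature control held 20 min.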

Sequence | soluble fraction (log2)
HMDNMTEMQKAVTALIEKSGGSIDNLSVIYDHLKKKYPSFDLKDYGYSRFSSFLRSMENIMVRGNAVTLRS | -0.211
HMKNKVTVPKVEGMDKEEAIQALNEVGLGYKAVMQSSDSVAEGKVISQGTAAGKKVDKNTQIIITVSGG | 0.237
HMDDADPYEILGVERDAEDAEIKRAYHDLIRENHPDRLMAEGLPQEMIDVANEKVAFINDAYDRIEKLRGM | -0.193
HMSADISIGYNIPKGSVTVSAGGRTLQEGIDYDINYDLGTIKITNQAILNAGLPVQVNFENNAS | 0.849
HMADTFVMPDLVYRRYEPVRGYFERGGFHMGAVKFEPYEGISDGTILRQNPLPGHPLRRRDVISLVVAAS | -2.4
HMGAARRFEMSEGGSQKFWEVAVEGPALTVRFGKLGTAGTTQTKTLASAEAAAKEADKLVREKTKKGYAP | -0.199
HMPESFSEMQKRTGVGEFSDDALSAKYVDSIDADVMSLDEYIMKVRGISLDDLEAERALRAR | 0.0969
HMNTDALIGKTGYVTEIVGERHGRIQFSGGEWSARTEGVSIPVGAEVRVDRIDGATAVVSAV | 0.114
HMREKPRETFQRIAEKVGQTLRKGPVRVQQMDLLFSESREQVMEVLRAMAESGEIRIQDDTLHWNGHT | 0.173
HMDVAWDAIKAKLKEVVDAEDKAHPLNDDQIVKALGESGITIARRTIAKYRDLLGIPPARKRKA | -0.213
HMHPVTGRIGTVTAANGLNLRADSSEYANVVATLGYGVDVTVTGERINGFYPVRVGTLSGYVSADYVSFNS | -1.23
HMKEGGREEMSEIVERYGDERALMANITSVQNLMNNMKWTLDQALDALGIKGKERTLITQQLQ | -0.0628
HMQRDERYVYHTVLAGETIYSLSRKFNVTMDELLESNPALRSGVLTTGSEIRVLKAQMAQNFD | -1.25
HMKRVTRQRTEILRVIDESERPLGPQEILQAGREAIPSLSIATIYRTLRDLLAEELIKTVALPGDSPRYES | -1.33
HMLIDQYPYSIIYRLIPHGRSNAVPAAQIVGLTKLDERSIRIYVEAMRREGHIIASSSKGYYFPASIEE | -3.2
HMYDPVNEIGRVLKKIRQERSLTLDNVAEITGVSKTMLGQIERGVSVPTISVLWKIAKGLQVSLSTLLNE | -3.24
HMAAEEAFPGGRIVQNAEENRLQILFDEIPGEDVRAALKSHGFRWSPKNKAWQRQLTQNAEYDARRILGI | -0.06
HMKDIIVDPQGQYNHPGVPTRIPSSDITMKGVGYPVLGIADNGQKQMMQPGQDYKFPGAKYVDEYPQM | 0.185
HMPPDVIENIFKNDANKIIDLYNMAPRGQKETIVEMIKNKRLQGINVDANVLVKLGELTGIDFVN | -0.087
HMLPFGHTRLEDGTIQEIPEQIALARKVAEMYKAGFPVMQISIKTEGLLTPRQIYGLMNHWGVKR | -1.3
HMPLDYQELRNISPQAARQAILQILKANKGNVSQTARMLGITRKTVYKAMAKREAGNLDDGSRAPK | -1.41
HMFRMTPQRMAILAEVQNAERHLTAAEIYERVRRKYPTIAYGTVYRTLHLLAKHGLIQEFPFGDNASLFDR | -0.159
HMQQRTVEHVDTAVEALALSIGERAGVDLPYMAHLTGKTQEDLIEDLTGVIFPVPGTEPLRYVTADDYLS | 0.181
HMNSEEINDVRKAVDELPTHLREILLLNYFQQMSYVQISDSLEIPLGTVKSRLHAAVAAFRNAWQSSQEE | -0.484
HMNDVGKVLNQLGERDRMILLLTYWDELPLKEAARILEVSENNAKIILFRARSRFASLWSAGS | -3.14
HMDAKQLQSLKNNNEQLAGFIVRLTNFYEGLSPDIDAELSKLRSHLSGKVDYTLATVSINKINQLFMLEP | -2.97
HMEIEYFDDEELDAYKGRKSDSYTDEEAAQFAEVLYTMRPSEVKDWTASLTLRGISMPDQIKDEAIMLME | -0.148
HMGDVKLNAIYNFLKEFSALNGFPPSVREIGAKFGIKSTSTVHYYLEKLKQSGVIQQEENKKRAVVIN | -1.32
HMFPNSFSEREKEVVDLLLQAKSNKQIAFSLGITNRTVEYHLGNIFAKLGVSSRSEAILTITNYKNQ | -2.35
HMENRILLSEDSLKHLAQDIPIDIIEKLSVLKDQIYHRYDDFNSIVQGLLGGENYLKYKDNILSFVEQ | 0.424
